Reference: patent US20250277199, “NOVEL CRISPR-CAS NUCLEASES FROM METAGENOMES” (Brain Biotech AG, published 2025)

Target: T1, BMC09 (uncultured bacterium (metagenome))
T1 chain: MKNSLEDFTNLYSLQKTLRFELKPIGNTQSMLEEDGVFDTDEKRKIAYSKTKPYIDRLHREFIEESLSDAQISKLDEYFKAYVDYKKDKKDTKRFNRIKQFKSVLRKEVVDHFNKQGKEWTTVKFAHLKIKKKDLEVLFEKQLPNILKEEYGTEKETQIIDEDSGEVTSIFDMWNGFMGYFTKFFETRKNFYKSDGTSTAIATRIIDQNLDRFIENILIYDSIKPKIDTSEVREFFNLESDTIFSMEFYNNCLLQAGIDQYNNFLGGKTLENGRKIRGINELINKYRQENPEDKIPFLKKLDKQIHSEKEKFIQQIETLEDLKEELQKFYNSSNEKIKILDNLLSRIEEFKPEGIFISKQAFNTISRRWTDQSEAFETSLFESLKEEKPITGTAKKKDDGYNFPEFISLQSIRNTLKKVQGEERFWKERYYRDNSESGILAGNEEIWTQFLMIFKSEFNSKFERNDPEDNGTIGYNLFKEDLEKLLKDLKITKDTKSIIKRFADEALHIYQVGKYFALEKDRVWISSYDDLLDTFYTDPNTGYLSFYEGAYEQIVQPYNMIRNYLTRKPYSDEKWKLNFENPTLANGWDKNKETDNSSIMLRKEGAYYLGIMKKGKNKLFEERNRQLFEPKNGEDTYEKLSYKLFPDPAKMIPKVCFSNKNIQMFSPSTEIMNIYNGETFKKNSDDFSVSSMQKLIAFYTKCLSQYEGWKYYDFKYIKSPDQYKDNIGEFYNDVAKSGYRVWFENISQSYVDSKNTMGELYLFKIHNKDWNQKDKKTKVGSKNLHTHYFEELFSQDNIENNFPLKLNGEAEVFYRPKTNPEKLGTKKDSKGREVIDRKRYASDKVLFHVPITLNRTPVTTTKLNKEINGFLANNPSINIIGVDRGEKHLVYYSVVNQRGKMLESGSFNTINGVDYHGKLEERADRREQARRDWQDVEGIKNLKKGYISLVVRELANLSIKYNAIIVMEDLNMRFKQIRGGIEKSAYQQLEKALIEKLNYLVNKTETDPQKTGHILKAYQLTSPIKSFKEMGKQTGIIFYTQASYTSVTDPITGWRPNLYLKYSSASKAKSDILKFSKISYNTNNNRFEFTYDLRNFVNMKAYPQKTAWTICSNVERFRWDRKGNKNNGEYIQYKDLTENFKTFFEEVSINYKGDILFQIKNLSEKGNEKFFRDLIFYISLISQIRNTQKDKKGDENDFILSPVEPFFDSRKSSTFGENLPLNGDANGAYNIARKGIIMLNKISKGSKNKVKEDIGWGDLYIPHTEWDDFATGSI
Experiment: cell_activity; PAM not stated; E. coli depletion, 30 C
How it was run: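 E. coli carrying arabinose-induced (0.2%) BMC nuclease, grown at 30° C., made electrocompetent and electroporated with 50-100 ng plasmid carrying gRNA against malQ. Transformants plated on selective M9-glucose agar with kanamycin/ampicillin (± nourseothricin), and growth scored after 48 h at 30° C.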

B1: malQ gRNA (BMC stem-loop + 24 nt spacer) ; malQ protospacer (ssRNA ; dsDNA)
RNA: GAUUUCUACUAUUGUAGAUGUGGCGGUACGUUGAUGCAUCGCG
DNA 1: GTGGCGGTACGTTGATGCATCGCG
DNA 2: CGCGATGCATCAACGTACCGCCAC
Work on B1 yielded an activity greater than 99.9 % colony reduction.
